Test results published in the supplement of paper PMC11316812.
± gives the standard deviation of the averaged measurements.

Key:
MCF7 = assay: percentage of EdU-negative (G0-arrested) nuclei per well, 72 h; higher = more G0 arrest; conditions: reference: sequence is the full UniProt precursor, the tested protein was the secreted form or ectodomain
hTERT-HMEC = assay: as above; conditions: reference: sequence is the full UniProt precursor, the tested protein was the secreted form or ectodomain
[1] = protein concentration 0.03125 µM
[2] = protein concentration 0.3125 µM
[3] = protein concentration 0.0225 µM
[4] = protein concentration 0.0294275 µM
[5] = protein concentration 0.294275 µM
[6] = protein concentration 0.02025 µM
[7] = protein concentration 0.2025 µM
[8] = protein concentration 0.0070625 µM
[9] = protein concentration 0.070625 µM
[10] = protein concentration 0.0140425 µM
[11] = protein concentration 0.140425 µM
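Also: secreted proteins added to cultured cells, EdU pulse at the end, nuclei found by Hoechst imaging, EdU status from nuclear versus surrounding ring intensity ratio, PBS as neutral control.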

Sequence: MAPSSPRPALPALLVLLGALFPGPGNAQTSVSPSKVILPRGGSVLVTCSTSCDQPKLLGIETPLPKKELLLPGNNRKVYELSNVQEDSQPMCYSNCPDGQSTAKTFLTVYWTPERVELAPLPSWQPVGKNLTLRCQVEGGAPRANLTVVLLRGEKELKREPAVGEPAEVTTTVLVRRDHHGANFSCRTELDLRPQGLELFENTSAPYQLQTFVLPATPPQLVSPRVLEVDTQGTVVCSLDGLFPVSEAQVHLALGDQRLNPTVTYGNDSFSAKASVSVTAEDEGTQRLTCAVILGNQSQETLQTVTIYSFPAPNVILTKPEVSEGTEVTVKCEAHPRAKVTLNGVPAQPLGPRAQLLLKATPEDNGRSFSCSATLEVAGQLIHKNQTRELRVLYGPRLDERDCPGNWTWPENSQQTPMCQAWGNPLPELKCLKDGTFPLPIGESVTVTRDLEGTYLCRARSTQGEVTRKVTVNVLSPRYEIVIITVVAAAVIMGTAGLSTYLYNRQRKIKKYRLQQAQKGTPMKPNTQATPP
- percentage of EdU-negative (MCF7; [1]): 24.7 ± 1.5%
- percentage of EdU-negative (MCF7; [2]): 24.2 ± 3.4%
- percentage of EdU-negative (hTERT-HMEC; [1]): 5 ± 0.26%
- percentage of EdU-negative (hTERT-HMEC; [2]): 5.68 ± 0.88%

Sequence: MVNLAAMVWRRLLRKRWVLALVFGLSLVYFLSSTFKQEERAVRDRNLLQVHDHNQPIPWKVQFNLGNSSRPSNQCRNSIQGKHLITDELGYVCERKDLLVNGCCNVNVPSTKQYCCDGCWPNGCCSAYEYCVSCCLQPNKQLLLERFLNRAAVAFQNLFMAVEDHFELCLAKCRTSSQSVQHENTYRDPIAKYCYGESPPELFPA [Q9H741]
- percentage of EdU-negative (MCF7; [3]): 26.4 ± 1.1%
- percentage of EdU-negative (MCF7; protein concentration 0.225 µM): 27 ± 2.9%
- percentage of EdU-negative (hTERT-HMEC; [3]): 5.34 ± 0.37%
- percentage of EdU-negative (hTERT-HMEC; protein concentration 0.225 µM): 7.52 ± 0.6%

Sequence: MERPSLRALLLGAAGLLLLLLPLSSSSSSDTCGPCEPASCPPLPPLGCLLGETRDACGCCPMCARGEGEPCGGGGAGRGYCAPGMECVKSRKRRKGKAGAAAGGPGVSGVCVCKSRYPVCGSDGTTYPSGCQLRAASQRAESRGEKAITQVSKGTCEQGPSIVTPPKDIWNVTGAQVYLSCEVIGIPTPVLIWNKVKRGHYGVQRTELLPGDRDNLAIQTRGGPEKHEVTGWVLVSPLSKEDAGEYECHASNSQGQASASAKITVVDALHEIPVKKGEGAEL
- percentage of EdU-negative (MCF7; [4]): 25.4 ± 0.77%
- percentage of EdU-negative (MCF7; [5]): 26.5 ± 1.5%
- percentage of EdU-negative (hTERT-HMEC; [4]): 4.88 ± 0.84%
- percentage of EdU-negative (hTERT-HMEC; [5]): 5.65 ± 0.3%

Sequence: MAVKKIAIFGATGQTGLTTLAQAVQAGYEVTVLVRDSSRLPSEGPRPAHVVVGDVLQAADVDKTVAGQDAVIVLLGTRNDLSPTTVMSEGARNIVAAMKAHGVDKVVACTSAFLLWDPTKVPPRLQAVTDDHIRMHKVLRESGLKYVAVMPPHIGDQPLTGAYTVTLDGRGPSRVISKHDLGHFMLRCLTTDEYDGHSTYPSHQYQ
- percentage of EdU-negative (MCF7; [3]): 22.7 ± 3%
- percentage of EdU-negative (MCF7; protein concentration 0.225 µM): 23.37 ± 0.19%
- percentage of EdU-negative (hTERT-HMEC; [3]): 5.08 ± 0.64%
- percentage of EdU-negative (hTERT-HMEC; protein concentration 0.225 µM): 5.64 ± 0.7%

Sequence: MVRLAAELLLLLGLLLLTLHITVLRGSGAADGPDAAAGNASQAQLQNNLNVGSDTTSETSFSLSKEAPREHLDHQAAHQPFPRPRFRQETGHPSLQRDFPRSFLLDLPNFPDLSKADINGQNPNIQVTIEVVDGPDSEADKDQHPENKPSWSVPSPDWRAWWQRSLSLARANSGDQDYKYDSTSDDSNFLNPPRGWDHTAPGHRTFETKDQPEYDSTDGEGDWSLWSVCSVTCGNGNQKRTRSCGYACTATESRTCDRPNCPGIEDTFRTAATEVSLLAGSEEFNATKLFEVDTDSCERWMSCKSEFLKKYMHKVMNDLPSCPCSYPTEVAYSTADIFDRIKRKDFRWKDASGPKEKLEIYKPTARYCIRSMLSLESTTLAAQHCCYGDNMQLITRGKGAGTPNLISTEFSAELHYKVDVLPWIICKGDWSRYNEARPPNNGQKCTESPSDEDYIKQFQEAREY [B1AKI9]
- percentage of EdU-negative (MCF7; [6]): 25.3 ± 2.1%
- percentage of EdU-negative (MCF7; [7]): 24.1 ± 0.87%
- percentage of EdU-negative (hTERT-HMEC; [6]): 4.82 ± 0.37%
- percentage of EdU-negative (hTERT-HMEC; [7]): 5.13 ± 0.59%

Sequence: MMSFVQKGSWLLLALLHPTIILAQQEAVEGGCSHLGQSYADRDVWKPEPCQICVCDSGSVLCDDIICDDQELDCPNPEIPFGECCAVCPQPPTAPTRPPNGQGPQGPKGDPGPPGIPGRNGDPGIPGQPGSPGSPGPPGICESCPTGPQNYSPQYDSYDVKSGVAVGGLAGYPGPAGPPGPPGPPGTSGHPGSPGSPGYQGPPGEPGQAGPSGPPGPPGAIGPSGPAGKDGESGRPGRPGERGLPGPPGIKGPAGIPGFPGMKGHRGFDGRNGEKGETGAPGLKGENGLPGENGAPGPMGPRGAPGERGRPGLPGAAGARGNDGARGSDGQPGPPGPPGTAGFPGSPGAKGEVGPAGSPGSNGAPGQRGEPGPQGHAGAQGPPGPPGINGSPGGKGEMGPAGIPGAPGLMGARGPPGPAGANGAPGLRGGAGEPGKNGAKGEPGPRGERGEAGIPGVPGAKGEDGKDGSPGEPGANGLPGAAGERGAPGFRGPAGPNGIPGEKGPAGERGAPGPAGPRGAAGEPGRDGVPGGPGMRGMPGSPGGPGSDGKPGPPGSQGESGRPGPPGPSGPRGQPGVMGFPGPKGNDGAPGKNGERGGPGGPGPQGPPGKNGETGPQGPPGPTGPGGDKGDTGPPGPQGLQGLPGTGGPPGENGKPGEPGPKGDAGAPGAPGGKGDAGAPGERGPPGLAGAPGLRGGAGPPGPEGGKGAAGPPGPPGAAGTPGLQGMPGERGGLGSPGPKGDKGEPGGPGADGVPGKDGPRGPTGPIGPPGPAGQPGDKGEGGAPGLPGIAGPRGSPGERGETGPPGPAGFPGAPGQNGEPGGKGERGAPGEKGEGGPPGVAGPPGGSGPAGPPGPQGVKGERGSPGGPGAAGFPGARGLPGPPGSNGNPGPPGPSGSPGKDGPPGPAGNTGAPGSPGVSGPKGDAGQPGEKGSPGAQGPPGAPGPLGIAGITGARGLAGPPGMPGPRGSPGPQGVKGESGKPGANGLSGERGPPGPQGLPGLAGTAGEPGRDGNPGSDGLPGRDGSPGGKGDRGENGSPGAPGAPGHPGPPGPVGPAGKSGDRGESGPAGPAGAPGPAGSRGAPGPQGPRGDKGETGERGAAGIKGHRGFPGNPGAPGSPGPAGQQGAIGSPGPAGPRGPVGPSGPPGKDGTSGHPGPIGPPGPRGNRGERGSEGSPGHPGQPGPPGPPGAPGPCCGGVGAAAIAGIGGEKAGGFAPYYGDEPMDFKINTDEIMTSLKSVNGQIESLISPDGSRKNPARNCRDLKFCHPELKSGEYWVDPNQGCKLDAIKVFCNMETGETCISANPLNVPRKHWWTDSSAEKKHVWFGESMDGGFQFSYGNPELPEDVLDVHLAFLRLLSSRASQNITYHCKNSIAYMDQASGNVKKALKLMGSNEGEFKAEGNSKFTYTVLEDGCTKHTGEWSKTVFEYRTRKAVRLPIVDIAPYDIGGPDQEFGVDVGPVCFL
- percentage of EdU-negative (MCF7; [3]): 26.55 ± 0.19%
- percentage of EdU-negative (MCF7; protein concentration 0.225 µM): 27.4 ± 1.2%
- percentage of EdU-negative (hTERT-HMEC; [3]): 4.96 ± 0.66%
- percentage of EdU-negative (hTERT-HMEC; protein concentration 0.225 µM): 6.99 ± 0.87%

Sequence: MGAARLLPNLTLCLQLLILCCQTQGENHPSPNFNQYVRDQGAMTDQLSRRQIREYQLYSRTSGKHVQVTGRRISATAEDGNKFAKLIVETDTFGSRVRIKGAESEKYICMNKRGKLIGKPSGKSKDCVFTEIVLENNYTAFQNARHEGWFMAFTRQGRPRQASRSRQNQREAHFIKRLYQGQLPFPNHAEKQKQFEFVGSAPTRRTKRTRRPQPLT
- percentage of EdU-negative (MCF7; [8]): 26.1 ± 0.65%
- percentage of EdU-negative (MCF7; [9]): 25.6 ± 3.5%
- percentage of EdU-negative (hTERT-HMEC; [8]): 4.842 ± 0.02%
- percentage of EdU-negative (hTERT-HMEC; [9]): 5.5 ± 0.25%

Sequence: MRAPGMRSRPAGPALLLLLLFLGAAESVRRAQPPRRYTPDWPSLDSRPLPAWFDEAKFGVFIHWGVFSVPAWGSEWFWWHWQGEGRPQYQRFMRDNYPPGFSYADFGPQFTARFFHPEEWADLFQAAGAKYVVLTTKHHEGFTNWPSPVSWNWNSKDVGPHRDLVGELGTALRKRNIRYGLYHSLLEWFHPLYLLDKKNGFKTQHFVSAKTMPELYDLVNSYKPDLIWSDGEWECPDTYWNSTNFLSWLYNDSPVKDEVVVNDRWGQNCSCHHGGYYNCEDKFKPQSLPDHKWEMCTSIDKFSWGYRRDMALSDVTEESEIISELVQTVSLGGNYLLNIGPTKDGLIVPIFQERLLAVGKWLSINGEAIYASKPWRVQWEKNTTSVWYTSKGSAVYAIFLHWPENGVLNLESPITTSTTKITMLGIQGDLKWSTDPDKGLFISLPQLPPSAVPAEFAWTIKLTGVK
- percentage of EdU-negative (MCF7; [1]): 23.7 ± 2%
- percentage of EdU-negative (MCF7; [2]): 27.8 ± 1.4%
- percentage of EdU-negative (hTERT-HMEC; [1]): 5.35 ± 1.3%
- percentage of EdU-negative (hTERT-HMEC; [2]): 6.003 ± 0.042%

Sequence: MHLRLISWLFIILNFMEYIGSQNASRGRRQRRMHPNVSQGCQGGCATCSDYNGCLSCKPRLFFALERIGMKQIGVCLSSCPSGYYGTRYPDINKCTKCKADCDTCFNKNFCTKCKSGFYLHLGKCLDNCPEGLEANNHTMECVSIVHCEVSEWNPWSPCTKKGKTCGFKRGTETRVREIIQHPSAKGNLCPPTNETRKCTVQRKKCQKGERGKKGRERKRKKPNKGESKEAIPDSKSLESSKEIPEQRENKQQQKKRKVQDKQKSVSVSTVH [Q9BXY4]
- percentage of EdU-negative (MCF7; [10]): 23.8 ± 0.26%
- percentage of EdU-negative (MCF7; [11]): 24.3 ± 1.6%
- percentage of EdU-negative (hTERT-HMEC; [10]): 4.43 ± 0.65%
- percentage of EdU-negative (hTERT-HMEC; [11]): 5.27 ± 0.29%
